Data reported in the nanobody polyreactivity screen of Harvey et al. (2022).

Assay: yeast display, Sf9 membrane polyspecificity reagent, FACS + sequencing; frameworks hold sequencing errors
How it was run: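 After 36–48 hours of galactose induction, yeast (Saccharomyces cerevisiae BJ5465) displaying a synthetic nanobody library were stained at 4 °C for 1 hour with 10% biotinylated, detergent-solubilized Sf9 membrane reagent. Streptavidin microbeads enriched the stained cells before FACS sorting into low and high (top ~1%) gates on anti-HA and streptavidin fluorescence. Each clone's polyreactivity label reflects its gate of origin.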

Row | Sequence | polyreactivity (PSR sort gate)
1 | QVQLVESGGGLVQAGGSLRLSCAASGITFNLYAMGWYRQAPGKERELVASINSGGSPYYADSVKGRFTISRDNAKNTVYLQMNSLKPEDTAVYYCAAETSYYYRGYWKSYDYWGQGTQVTVSS | high polyreactivity
2 | QVQLVESGGGLVQAGGSLRLSCAASGLIFYEHAMGWYRQAPGKERELVAAINYDGDSTYYADSVKGRFTISRDNAKITVYLQMNSLKPEDTAVYYCAADGGWVLFWMDYCGQGTQVTVSS | low polyreactivity
3 | QVQLVESGGGLVQAGGSLRLICAASGRILYKNSMGWYRQAPAKEMQLVAAISSTAGYTYYADSLKGRFTISRDNAKNTVYLQMNSLKPEDTAVYYCAARRSGVKRRYDYWGQGTQVTVSS | low polyreactivity
4 | QVQLVESGGGLVQAGGSLRLSCPASGSTQHYYVKAWYRQAQGKERELVAAITWSGVSTYYADSVKGRFTISRDNAKNTVYLQMNSLKPEDTAVYYCAKRIFTSARLNYWGKGTQVTVSS | high polyreactivity
5 | QVQLVESGGGLVQAGGSLRLSCAASGSTFDDYAMGWYRQATGIERELVAAINNGGSTTYADSVKGRFTISRDNAKNTVYLQMNSLKPEDTAVYYCAKDSGAWEYDYWGQGTQVTVSS | low polyreactivity
6 | QVQLVESGGGLVQAGGSLRLSCAASGRTFRYYAMGWYRQAPGKERELVADISWSGGRTTYADSVKGRFTISRDNAKNTVYLQMNSLKPEDTAVYYCAKVLYYPSHVSWGQGTQVTVSS | high polyreactivity
7 | QVQLVESGGGLVQAGGSLRLSCAASGSLFYNNAKGWYRQAPGKERELVAAIRSTGTRTYYADSVKGRFTISRDTAKNTVYLQMNSLKPEDTAVYYCAVGDYGLWSYDYWGQGSQVTVSS | low polyreactivity
8 | QVQLVESGGGIVQAGGSLRLSCAASGSTFGWYAMGWYRPAPGKERELVAAISTSGNTYYADSVKGRFTISRDNAKNTVYLQLNSLKPEDTAVYYCAKYVNPDHDYWGQGTQVTVSS | low polyreactivity
9 | QVQLVESGGGLDQAGGSLRLSSAASGFIFWFNAMRWYRQAPGTERELVATISRSDTSTYYADSVKGRFTISRDNAKNSVYLQMNSLKPEDTAVYYCATDVRETWLPEYYWGQGTEVTVSS | low polyreactivity
10 | QFQLVESWVGLVQAGGSLRLSCAASGSTFPYYAIGWYRQAPGKERELVASIRKRGGGTYYADSVKGRFTISRDNAKNTVYLQMNSLKPEDTAVYYCAVRVYQFRFTGYDYWGHGTQVTVSS | high polyreactivity
11 | QVQLVESGGGLVQAGGSLRLSCAASGITFSVYAMGWYRQAPGTERELVAAISGSAGSTYYADSVKGRFTISRDNAKNTVYLQLNSLKPEDTAVYYCAARLAPKYSPSSYNYWGEGTQVTVSS | high polyreactivity
12 | QVQLVESGGGLVQAGGSLRLTCAASGSIFTFYAMGWYRQAPGKERELVADISFSDVSTYYADSVKGRFTISRDNAKNTVYLQMNSLKPEDTAVYYCAARPYVVSQYFDGVEFYYWGQGTQVTVSS | low polyreactivity
13 | QVQLVDSGGGLVQAGGSLRLSCAASGRTFRSNAMGWYRQAPGKERELVAAITGSGGRTYYADSVKGRFTISRDNAKNTVYLQMNSLKPEDTAVYYCAARGRAHWHYDDWGQGTQVTVSS | high polyreactivity
14 | QVQLVESGGGLVQAGGSLRLSCSASGRTFYHYTMGRYIQAPGKERELVAAITSGGSTYYADSVKGRFPISRDNAKNTVYLQMNSLKPEDTAVYYCARVRPLYHYSRYDYWGQGTQVTVSS | high polyreactivity
15 | QVQLVESGGGLVQAGGSLRLSCAASGRIFGYYVMGWYRQAPGTERELVAAITGGGGSTYYADSVKGRFTISRDNAKNTVYLQMNSLKPEDNAVYYCAADLEDTTYEYDYWGQGTQVTVSS | high polyreactivity
16 | QVQLVESVGGLVQAGGSLRLSCAASGFTFYGYAMGWYRQAPGKERELVAAITSGGITNYADSVKGRFTISRDNAKNTVYLQMNSLKPEDTAVYYCNVKRRVSGYYGYKYYYWGQGTQVTVSS | high polyreactivity
17 | QVQLVESGGGLVQPGGSLRLSCAASGSIYTNAMGWYRQAPGKERELVAAISWSGGRTYYADSVKGRFTISRDNAKNTVYFQLNSLKPEDTAVYYCNTRGTRIASGHYYWGQGTQVTVSS | high polyreactivity
18 | QVQLVDSGGGLVQAGGSLRLTFAASGSIFAWYAMGLYRQEPGKERELVAVITRGGSTNYADSVKGRFTISRDNAKNTVYLPMISQKPEDTAVYYCAAGSYYSWYPFDYWGQGTQLTVSS | low polyreactivity
19 | QVQLVESVGGLVQAGGSLSLSCAASGSIFIYNARGWYRQAPGKERELVATISSGGSTTYADSVKGRFTISRDNAKNTVYLQMNSLKPEDTAVYYCATYDPPDQYFYLGYYYWGANDYWGQGTQVTVSS | low polyreactivity
20 | QGQLVESGGGLGQAGGSLRLSCAASGSIFQPNDMGWYRQAPGKERELVATISTGGTTNYADSVKGRFTISRDNAKNTVYLQMNSLKPDDTAVYYCATDRTFTISNYDYWGQGTQVTVSS | low polyreactivity
21 | QVQLVESGGGLVQAGGSLRLSCAASGGTFGSYAMGWYRQAPAKERELVAAIRSGDRTYYADSVKGRFTISRDNAKNTDYLQMNSLKPEHTAVDYCAAFYHHYYRYDYWGQGTQVTVSS | low polyreactivity
